Assay results reported in paper PMC12713037, “FBXO44 Regulates FOXP1 Degradation Through AURKA‐Dependent Phosphorylation to Promote Colorectal Cancer Progression” (Advanced Science, 2025).
Blank lines part the entries; values can stand above or below the molecule they belong to.

How the values were obtained:
[1] = target: FBXO44 (F-box only protein 44) (UniProt Q9H4M3); test: co-IP with anti-Flag, Western blot; details: reference: Myc-FOXP1 wild type with His-AURKA; sites S440
[2] = target: T1, Purified Myc-FOXP1 (UniProt Q9H334 1-677); test: pull-down; GST-FBXO44 coupled to glutathione-Sepharose beads incubated with purified Myc-FOXP1; retained proteins analysed by immunoblot; details: both partners purified
T1 construct: Forkhead box protein P1 (FOXP1), Myc-tagged, purified for the GST pull-down; source: purified
T1 sequence (looked up): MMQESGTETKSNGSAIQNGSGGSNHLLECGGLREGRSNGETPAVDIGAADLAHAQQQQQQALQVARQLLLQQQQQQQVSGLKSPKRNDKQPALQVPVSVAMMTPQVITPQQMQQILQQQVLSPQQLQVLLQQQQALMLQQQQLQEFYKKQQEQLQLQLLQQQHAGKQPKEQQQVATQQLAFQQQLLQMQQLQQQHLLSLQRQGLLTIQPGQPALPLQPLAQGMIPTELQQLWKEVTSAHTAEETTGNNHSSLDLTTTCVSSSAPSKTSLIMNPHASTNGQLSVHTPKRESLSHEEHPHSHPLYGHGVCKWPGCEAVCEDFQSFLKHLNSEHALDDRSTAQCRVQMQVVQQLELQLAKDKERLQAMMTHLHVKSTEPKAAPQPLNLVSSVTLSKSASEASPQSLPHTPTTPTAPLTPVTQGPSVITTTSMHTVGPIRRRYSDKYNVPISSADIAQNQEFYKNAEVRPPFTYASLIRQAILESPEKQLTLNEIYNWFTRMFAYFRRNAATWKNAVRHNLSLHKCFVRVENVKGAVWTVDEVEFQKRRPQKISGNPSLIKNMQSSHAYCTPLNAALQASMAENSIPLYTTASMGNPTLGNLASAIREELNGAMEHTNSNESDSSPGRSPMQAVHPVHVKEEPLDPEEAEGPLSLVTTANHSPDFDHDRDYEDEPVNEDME

- binding against the reference [1]: weaker
Molecule: FOXP1 (Forkhead box protein P1) (from UniProt Q9H334) Myc-FOXP1 S440A with His-AURKA

- binding result [2]: binds
B1: Recombinant GST-FBXO44 (natural protein, UniProt Q9H4M3 1-255, looked up)
chain: MAVGNINELPENILLELFTHVPARQLLLNCRLVCSLWRDLIDLVTLWKRKCLREGFITEDWDQPVADWKIFYFLRSLHRNLLHNPCAEEGFEFWSLDVNGGDEWKVEDLSRDQRKEFPNDQVKKYFVTSYYTCLKSQVVDLKAEGYWEELMDTTRPDIEVKDWFAARPDCGSKYQLCVQLLSSAHAPLGTFQPDPATIQQKSDAKWREVSHTFSNYPPGVRYIWFQHGGVDTHYWAGWYGPRVTNSSITIGPPLP
notes: F-box only protein 44 (FBXO44) fused to GST; source: purified from bacteria
